In patent US20230293638A1 (Eli Lilly, published 2023):
Substitutions are numbered along the chain they refer to. Numbered stars: 1 amine (or outer) side, 2 acyl side, 3 side chain; on linkers, the order of the positions; unused ones are H or OH. Square brackets hold non-standard residues; d marks the D form. Side chains are listed from the residue outwards. Ends that are not written are not given here. * marks the point of attachment. C20 diacid = O=C(O)CCCCCCCCCCCCCCCCCCC(=O)*; γGlu = O=C(O)[C@H](CCC(=O)[*:2])N[*:1]; AEEA = NCCOCCOCC(=O)O; Aib = CC(C)(N)C(=O)O

B1: Peptide 265 (peptide)
peptide: YXEGTXTSDXSIXLDXKAQXEFIXXLIEGG
modifications: Aib2; αMeF(2F)6; 4Pal10; αMeL13; Orn16; K17((2-[2-(2-Amino-ethoxy)-ethoxy]-acetyl)2-(γGlu)-CO-(CH2)16-CO2H); Aib20; D-Glu24; αMeY25; C-terminal NH2
B2: Peptide 104 (peptide)
peptide: YXEGTXTSDYSIXLDEKAQXEFIEYLIEGG
modifications: Aib2; αMeF(2F)6; αMeL13; K17((2-[2-(2-Amino-ethoxy)-ethoxy]-acetyl)2-(γGlu)-CO-(CH2)16-CO2H); Aib20; C-terminal NH2
B3: Peptide 51 (peptide)
peptide: Y[Aib]EGTFTSDYSILLDKK([AEEA-AEEA-γGlu-C20 diacid])AQ[Aib]AFIEYLIEGG-NH2
modifications: N-terminus assumed
SMILES: CC[C@H](C)[C@H](NC(=O)[C@H](CC(C)C)NC(=O)[C@H](Cc1ccc(O)cc1)NC(=O)[C@H](CCC(=O)O)NC(=O)[C@@H](NC(=O)[C@H](Cc1ccccc1)NC(=O)[C@H](C)NC(=O)C(C)(C)NC(=O)[C@H](CCC(N)=O)NC(=O)[C@H](C)NC(=O)[C@H](CCCCNC(=O)COCCOCCNC(=O)COCCOCCNC(=O)CC[C@H](NC(=O)CCCCCCCCCCCCCCCCCCC(=O)O)C(=O)O)NC(=O)[C@H](CCCCN)NC(=O)[C@H](CC(=O)O)NC(=O)[C@H](CC(C)C)NC(=O)[C@H](CC(C)C)NC(=O)[C@@H](NC(=O)[C@H](CO)NC(=O)[C@H](Cc1ccc(O)cc1)NC(=O)[C@H](CC(=O)O)NC(=O)[C@H](CO)NC(=O)[C@@H](NC(=O)[C@H](Cc1ccccc1)NC(=O)[C@@H](NC(=O)CNC(=O)[C@H](CCC(=O)O)NC(=O)C(C)(C)NC(=O)[C@@H](N)Cc1ccc(O)cc1)[C@@H](C)O)[C@@H](C)O)[C@@H](C)CC)[C@@H](C)CC)C(=O)N[C@@H](CCC(=O)O)C(=O)NCC(=O)NCC(N)=O
B4: Peptide 64 (peptide)
peptide: B2 peptide with X6F, E16S, E21A
modifications: Aib2; αMeL13; K17((2-[2-(2-Amino-ethoxy)-ethoxy]-acetyl)2-(γGlu)-CO-(CH2)18-CO2H); Aib20; C-terminal NH2
B5: Peptide 62 (peptide)
peptide: B2 peptide with X6F, E16K, E21A
modifications: Aib2; αMeL13; K17((2-[2-(2-Amino-ethoxy)-ethoxy]-acetyl)2-(γGlu)-CO-(CH2)18-CO2H); Aib20; C-terminal NH2
B6: Peptide 97 (peptide)
peptide: YXEGTFTSDYSIXLDKIAQXAFIEYLIKGG
modifications: Aib2; αMeL13; Aib20; K28((2-[2-(2-Amino-ethoxy)-ethoxy]-acetyl)2-(γGlu)-CO-(CH2)18-CO2H); C-terminal NH2
B7: Peptide 99 (peptide)
peptide: B2 peptide with E16K, E21A
modifications: Aib2; αMeF6; αMeL13; K17((2-[2-(2-Amino-ethoxy)-ethoxy]-acetyl)2-(γGlu)-CO-(CH2)18-CO2H); Aib20; C-terminal NH2
B8: Peptide 4 (peptide)
peptide: YXEGTXTSDXSIXLDXKAQXEFIXXLIEGGPSSGAPPPS
modifications: Aib2; αMeF(2F)6; 4Pal10; αMeL13; Orn16; K17((2-[2-(2-Amino-ethoxy)-ethoxy]-acetyl)2-(γGlu)-CO-(CH2)16-CO2H); Aib20; D-Glu24; αMeY25; C-terminal NH2
B9: Peptide 73 (peptide)
peptide: Y[Aib]EGTFTSDYSILLDKIAQ[Aib]AFIEYLIK([AEEA-AEEA-γGlu-C20 diacid])GG-NH2
modifications: N-terminus assumed
SMILES: CC[C@H](C)[C@H](NC(=O)[C@H](CCCCN)NC(=O)[C@H](CC(=O)O)NC(=O)[C@H](CC(C)C)NC(=O)[C@H](CC(C)C)NC(=O)[C@@H](NC(=O)[C@H](CO)NC(=O)[C@H](Cc1ccc(O)cc1)NC(=O)[C@H](CC(=O)O)NC(=O)[C@H](CO)NC(=O)[C@@H](NC(=O)[C@H](Cc1ccccc1)NC(=O)[C@@H](NC(=O)CNC(=O)[C@H](CCC(=O)O)NC(=O)C(C)(C)NC(=O)[C@@H](N)Cc1ccc(O)cc1)[C@@H](C)O)[C@@H](C)O)[C@@H](C)CC)C(=O)N[C@@H](C)C(=O)N[C@@H](CCC(N)=O)C(=O)NC(C)(C)C(=O)N[C@@H](C)C(=O)N[C@@H](Cc1ccccc1)C(=O)N[C@H](C(=O)N[C@@H](CCC(=O)O)C(=O)N[C@@H](Cc1ccc(O)cc1)C(=O)N[C@@H](CC(C)C)C(=O)N[C@H](C(=O)N[C@@H](CCCCNC(=O)COCCOCCNC(=O)COCCOCCNC(=O)CC[C@H](NC(=O)CCCCCCCCCCCCCCCCCCC(=O)O)C(=O)O)C(=O)NCC(=O)NCC(N)=O)[C@@H](C)CC)[C@@H](C)CC
B10: Peptide 50 (peptide)
peptide: Y[Aib]EGTFTSDYSILLDKK([AEEA-AEEA-γGlu-C20 diacid])AQ[Aib]AFIEYLIEGGPSSG-NH2
modifications: N-terminus assumed
SMILES: CC[C@H](C)[C@H](NC(=O)[C@H](CC(C)C)NC(=O)[C@H](Cc1ccc(O)cc1)NC(=O)[C@H](CCC(=O)O)NC(=O)[C@@H](NC(=O)[C@H](Cc1ccccc1)NC(=O)[C@H](C)NC(=O)C(C)(C)NC(=O)[C@H](CCC(N)=O)NC(=O)[C@H](C)NC(=O)[C@H](CCCCNC(=O)COCCOCCNC(=O)COCCOCCNC(=O)CC[C@H](NC(=O)CCCCCCCCCCCCCCCCCCC(=O)O)C(=O)O)NC(=O)[C@H](CCCCN)NC(=O)[C@H](CC(=O)O)NC(=O)[C@H](CC(C)C)NC(=O)[C@H](CC(C)C)NC(=O)[C@@H](NC(=O)[C@H](CO)NC(=O)[C@H](Cc1ccc(O)cc1)NC(=O)[C@H](CC(=O)O)NC(=O)[C@H](CO)NC(=O)[C@@H](NC(=O)[C@H](Cc1ccccc1)NC(=O)[C@@H](NC(=O)CNC(=O)[C@H](CCC(=O)O)NC(=O)C(C)(C)NC(=O)[C@@H](N)Cc1ccc(O)cc1)[C@@H](C)O)[C@@H](C)O)[C@@H](C)CC)[C@@H](C)CC)C(=O)N[C@@H](CCC(=O)O)C(=O)NCC(=O)NCC(=O)N1CCC[C@H]1C(=O)N[C@@H](CO)C(=O)N[C@@H](CO)C(=O)NCC(N)=O
B11: Peptide 95 (peptide)
peptide: B6 peptide with F6X, X13L
modifications: Aib2; αMeF6; Aib20; K28((2-[2-(2-Amino-ethoxy)-ethoxy]-acetyl)2-(γGlu)-CO-(CH2)18-CO2H); C-terminal NH2
B12: Peptide 98 (peptide)
peptide: B2 peptide with X13L, E16K, E21A
modifications: Aib2; αMeF6; K17((2-[2-(2-Amino-ethoxy)-ethoxy]-acetyl)2-(γGlu)-CO-(CH2)18-CO2H); Aib20; C-terminal NH2
B13: Peptide 103 (peptide)
peptide: B2 peptide
modifications: Aib2; αMeF(2F)6; αMeL13; K17((2-[2-(2-Amino-ethoxy)-ethoxy]-acetyl)2-(γGlu)-CO-(CH2)18-CO2H); Aib20; C-terminal NH2
B14: Peptide 65 (peptide)
peptide: B6 peptide with K16T, I17K, K28E
modifications: Aib2; αMeL13; K17((2-[2-(2-Amino-ethoxy)-ethoxy]-acetyl)2-(γGlu)-CO-(CH2)18-CO2H); Aib20; C-terminal NH2
B15: Peptide 52 (peptide)
peptide: YXEGTFTSDYSIXLDSKAQXAFIEYLIEGGPSSGAPPPS
modifications: Aib2; αMeL13; K17((2-[2-(2-Amino-ethoxy)-ethoxy]-acetyl)2-(γGlu)-CO-(CH2)18-CO2H); Aib20; C-terminal NH2
B16: Peptide 60 (peptide)
peptide: B15 peptide with S16X
modifications: Aib2; αMeL13; Aib16; K17((2-[2-(2-Amino-ethoxy)-ethoxy]-acetyl)2-(γGlu)-CO-(CH2)18-CO2H); Aib20; C-terminal NH2
B17: Peptide 3 (peptide)
peptide: B8 peptide with X10Y, X25Y
modifications: Aib2; αMeF(2F)6; αMeL13; Orn16; K17((2-[2-(2-Amino-ethoxy)-ethoxy]-acetyl)2-(γGlu)-CO-(CH2)18-CO2H); Aib20; D-Glu24; C-terminal NH2
B18: Peptide 84 (peptide)
peptide: B15 peptide with X13L, S16K, E24X
modifications: Aib2; K17((2-[2-(2-Amino-ethoxy)-ethoxy]-acetyl)2-(γGlu)-CO-(CH2)18-CO2H); Aib20; D-Glu24; C-terminal NH2
B19: Peptide 83 (peptide)
peptide: B15 peptide with X13L, S16K, E28X
modifications: Aib2; K17((2-[2-(2-Amino-ethoxy)-ethoxy]-acetyl)2-(γGlu)-CO-(CH2)18-CO2H); Aib20; D-Glu28; C-terminal NH2
B20: Peptide 68 (peptide)
peptide: B15 peptide with S11X, X13L, S16K
modifications: Aib2; αMeS11; K17((2-[2-(2-Amino-ethoxy)-ethoxy]-acetyl)2-(γGlu)-CO-(CH2)18-CO2H); Aib20; C-terminal NH2
B21: Peptide 81 (peptide)
peptide: B15 peptide with S11X, X13L, S16K
modifications: Aib2; D-Ser11; K17((2-[2-(2-Amino-ethoxy)-ethoxy]-acetyl)2-(γGlu)-CO-(CH2)18-CO2H); Aib20; C-terminal NH2
B22: Peptide 89 (peptide)
peptide: B15 peptide with E3X, X13L, S16K
modifications: Aib2; Aad3; K17((2-[2-(2-Amino-ethoxy)-ethoxy]-acetyl)2-(γGlu)-CO-(CH2)18-CO2H); Aib20; C-terminal NH2
B23: Peptide 66 (peptide)
peptide: B15 peptide with S16E, I27L
modifications: Aib2; αMeL13; K17((2-[2-(2-Amino-ethoxy)-ethoxy]-acetyl)2-(γGlu)-CO-(CH2)18-CO2H); Aib20; C-terminal NH2
B24: Peptide 69 (peptide)
peptide: B15 peptide with F6X, S16K
modifications: Aib2; αMeF6; αMeL13; K17((2-[2-(2-Amino-ethoxy)-ethoxy]-acetyl)2-(γGlu)-CO-(CH2)18-CO2H); Aib20; C-terminal NH2
B25: Peptide 63 (peptide)
peptide: B2 peptide with X6F, E21A
modifications: Aib2; αMeL13; K17((2-[2-(2-Amino-ethoxy)-ethoxy]-acetyl)2-(γGlu)-CO-(CH2)18-CO2H); Aib20; C-terminal NH2

Target: T1, human gastric inhibitory peptide receptor (human, UniProt P48546 22-466)
T1 sequence (looked up): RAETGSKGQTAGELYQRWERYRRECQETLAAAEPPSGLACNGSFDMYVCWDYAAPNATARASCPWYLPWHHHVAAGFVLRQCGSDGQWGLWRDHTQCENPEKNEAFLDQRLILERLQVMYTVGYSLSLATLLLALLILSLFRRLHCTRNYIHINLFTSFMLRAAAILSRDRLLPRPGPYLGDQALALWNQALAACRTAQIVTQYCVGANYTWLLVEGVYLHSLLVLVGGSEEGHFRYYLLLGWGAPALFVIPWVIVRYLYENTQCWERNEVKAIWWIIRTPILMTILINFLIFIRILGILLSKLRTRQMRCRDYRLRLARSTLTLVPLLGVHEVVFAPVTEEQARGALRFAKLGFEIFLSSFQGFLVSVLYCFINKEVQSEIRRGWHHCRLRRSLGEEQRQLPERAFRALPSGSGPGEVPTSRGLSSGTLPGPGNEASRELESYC
Test: cell-based or functional assay

Row | Binder | hGIPR cAMP EC50 ratio
1 | B1 | 9.77

Target: human GLP-1 receptor (human, UniProt P43220 24-463)
Test: cell-based or functional assay

Row | Binder | hGLPIR cAMP EC50 ratio
2 | B2 | 1.85
3 | B1 | 3.27
4 | B3 | 0.426
5 | B4 | 0.429
6 | B5 | 0.463
7 | B6 | 0.0268
8 | B7 | 0.629
9 | B8 | 1.41
10 | B9 | 0.0225
11 | B10 | 0.675
12 | B11 | 0.0576
13 | B12 | 0.384
14 | B13 | 0.655
15 | B14 | 0.233
16 | B15 | 0.514
17 | B16 | 0.237
18 | B17 | 1.25
19 | B18 | 0.173
20 | B19 | 0.166
21 | B20 | 0.354
22 | B21 | 0.063
23 | B22 | 0.175
24 | B23 | 0.255
25 | B24 | 0.85
26 | B25 | 0.386
